Assay results as given in US20140161799A1 (ARCH ONCOLOGY, published 2014).

T1: pig CD47 (pig, UniProt Q9GKE8 19-303)
T1 construct: whole, on cells; also called CD47 on pig red blood cells
T1 sequence (looked up): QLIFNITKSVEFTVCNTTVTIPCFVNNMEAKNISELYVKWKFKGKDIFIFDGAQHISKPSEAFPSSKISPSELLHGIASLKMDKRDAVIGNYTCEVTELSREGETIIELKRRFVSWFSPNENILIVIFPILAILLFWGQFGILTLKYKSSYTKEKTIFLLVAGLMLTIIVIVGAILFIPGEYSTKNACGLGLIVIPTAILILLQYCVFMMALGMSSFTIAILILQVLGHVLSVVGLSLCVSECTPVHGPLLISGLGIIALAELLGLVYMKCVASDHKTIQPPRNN

T2: mouse CD47 (mouse, UniProt Q61735 19-303)
T2 construct: whole, on cells; also called CD47 on mouse red blood cells
T2 sequence (looked up): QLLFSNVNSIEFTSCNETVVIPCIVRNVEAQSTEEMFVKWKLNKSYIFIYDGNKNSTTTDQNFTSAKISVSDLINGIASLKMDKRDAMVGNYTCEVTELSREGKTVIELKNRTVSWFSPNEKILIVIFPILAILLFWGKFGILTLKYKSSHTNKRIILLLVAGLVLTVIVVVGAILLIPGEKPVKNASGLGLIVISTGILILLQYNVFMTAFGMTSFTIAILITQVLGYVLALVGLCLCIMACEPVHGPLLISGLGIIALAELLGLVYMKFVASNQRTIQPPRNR

T3: rat CD47 (rat, UniProt P97829 19-303)
T3 construct: whole, on cells; also called CD47 on rat red blood cells
T3 sequence (looked up): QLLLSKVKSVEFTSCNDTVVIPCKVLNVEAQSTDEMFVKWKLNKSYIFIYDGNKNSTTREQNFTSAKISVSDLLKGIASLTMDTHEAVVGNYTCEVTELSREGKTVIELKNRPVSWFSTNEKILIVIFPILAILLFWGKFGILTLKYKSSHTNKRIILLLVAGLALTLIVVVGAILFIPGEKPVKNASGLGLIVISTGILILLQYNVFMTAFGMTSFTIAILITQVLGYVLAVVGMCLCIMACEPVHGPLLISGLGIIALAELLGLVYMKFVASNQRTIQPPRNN


What was measured:
Assay in all cases: flow cytometry on RBCs, antibody 10 ng/ml
pig CD47 = target: T1, pig CD47
Protocol: (§1) Cross species reactivity of humanized antibodies of the present invention is determined using freshly isolated red blood cells (RBCs), which display CD47 on their surface, from human, mouse, rat, and pig according to the methods disclosed in Kamel et al. (2010) Blood. Transfus. 8(4):260-266.
(§2) RBCs are incubated for 60 minutes on ice with tissue culture supernatants containing the secreted humanized antibodies at a concentration of 10 ng/ml in a solution of phosphate buffered saline, pH 7.2, 2.5 mM EDTA (PBS+E). Cells are then washed with cold PBS+E, and incubated for an additional hour on ice with FITC labeled donkey anti-human antibody (Jackson Immuno Research Labs, West Grove, Pa.; Catalogue #709-096-149) in PBS+E. Cells are then washed with PBS+E, and antibody binding is analyzed using a BD FACSAria Cell Sorter (Becton Dickinson) or a C6 Accuri Flow Cytometer (Becton Dickinson). Antibody binding is quantitated by comparison of mean fluorescence values relative to that of chimeric antibody >VxP037-01LC (SEQ ID NO:7))/>VxP037-01HC (SEQ ID NO:57). The mean fluorescence value for each antibody is divided by the mean fluorescence value for the chimeric antibody.

mouse CD47 = target: T2, mouse CD47
Protocol: as §1, §2

human CD47 = target: T4, human CD47 (human, UniProt Q08722 19-323)
T4 construct: whole, on cells; also called CD47 on human red blood cells
T4 sequence (Q08722 19-323): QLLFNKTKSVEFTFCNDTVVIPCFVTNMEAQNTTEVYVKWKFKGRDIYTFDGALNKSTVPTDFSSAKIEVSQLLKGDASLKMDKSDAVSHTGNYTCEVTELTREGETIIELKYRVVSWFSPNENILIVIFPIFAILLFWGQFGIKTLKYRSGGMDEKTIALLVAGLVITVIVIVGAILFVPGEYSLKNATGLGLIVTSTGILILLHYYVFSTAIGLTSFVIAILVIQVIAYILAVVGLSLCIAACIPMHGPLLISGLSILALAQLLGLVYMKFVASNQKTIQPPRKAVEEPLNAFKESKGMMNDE
Protocol: as §1, §2

rat CD47 = target: T3, rat CD47
Protocol: as §1, §2

Binder | mean fluorescence relative to chimeric antibody (pig CD47) | mean fluorescence relative to chimeric antibody (mouse CD47) | mean fluorescence relative to chimeric antibody (human CD47) | mean fluorescence relative to chimeric antibody (rat CD47)
chimeric antibody VxP037-01LC/VxP037-01HC (antibody, human IgG1, kappa, V domains shown, tested as CHO supernatant; also called Chimera; VxP037-01-LC-Pro/VxP037-01-HC-Pro) VH: EVQLQQFGAELVKPGASMKLSCKASGYTFTNYYVFWVKQRPGQGLEWIGDINPVNGDTNFNEKFKNKATLTVDKSSTTTYLQLSSLTSEDSAVYYCTRGGYTMDYWGQGTLVTVSS VL: DVVMTQTPLSLSVSLGDQASISCRSSQSLVHSNGNTYLHWYLQKPGQSPKLLIYKVSYRFSGVPDRFSGSGSGTDFTLKISRVEAEDLGVYFCSQNTHVPRTFGQGTKVEIKR | 1 fold of chimera | 1 fold of chimera | 1 fold of chimera | 1 fold of chimera
pVxK7b-037-hum02-LC/pVxK7b-037-hum02-HC (antibody, human IgG1, V domains shown, Full-length human IgG1/kappa in CHO supernatant; Variable entries end within framework 4 (...FGQG / ...WGQG); also called Clone 2) VH: QVQLQESGPGLVKPSQTLSLTCTVSGYTFTNYYVFWVRQARGQRLEWIGDINPVNGDTNFNEKFKNRVTISADKSISTAYLQWSSLKASDTAMYYCARGGYTMDYWGQG VL: DVVMTQSPLSLPVTLGQPASISCRSSQSLVHSNGNTYLHWYQQKPGQAPRLLIYKVSYRFSGVPSRFSGSGSGTEFTLTISSLQPDDFATYYCSQNTHVPRTFGQG | 1.2 fold of chimera | 1.2 fold of chimera | 1 fold of chimera | 2.6 fold of chimera
pVxK7b-037-hum24-LC/pVxK7b-037-hum24-HC (antibody, human IgG1, V domains shown, Full-length human IgG1/kappa in CHO supernatant; Variable entries end within framework 4 (...FGQG / ...WGQG); also called Clone 24) VH: QVQLQESGPGLVKPGATVKISCKVSGYTFTNYYVFWVRQARGQRLEWIGDINPVNGDTNFNEKFKNRVTITADKSTSTAYMELSSLRSEDTAVYYCARGGYTMDYWGQG VL: AIQLTQSPSSLSASVGDRVTITCRSSQSLVHSNGNTYLHWYQQKPGQAPRLLIYKVSYRFSGVPSRFSGSGSGTEFTLTISSLQPDDFATYYCSQNTHVPRTFGQG | 1.1 fold of chimera | 0.7 fold of chimera | 0.8 fold of chimera | 1.2 fold of chimera
pVxK7b-037-hum19-LC/pVxK7b-037-hum19-HC (antibody, human IgG1, V domains shown, Full-length human IgG1/kappa in CHO supernatant; Variable entries end within framework 4 (...FGQG / ...WGQG); also called Clone 19) VH: EVQLVQSGAEVKKPGESLRISCKGSGYTFTNYYVFWIRQSPSRGLEWLGDINPVNGDTNFNEKFKNRVTITADKSTSTAYMELSSLRSEDTAVYYCARGGYTMDYWGQG VL: DVVMTQSPLSLPVTLGQPASISCRSSQSLVHSNGNTYLHWYQQKPGKAPKLLIYKVSYRFSGVPDRFSGSGSGTDFTLKISRVEAEDVGVYYCSQNTHVPRTFGQG | 1.3 fold of chimera | 1 fold of chimera | 0.7 fold of chimera | 2.6 fold of chimera
pVxK7b-037-hum03-LC/pVxK7b-037-hum03-HC (antibody, human IgG1, V domains shown, Full-length human IgG1/kappa in CHO supernatant; Variable entries end within framework 4 (...FGQG / ...WGQG); also called Clone 3) VH: EVQLVQSGAEVKKPGESLRISCKGSGYTFTNYYVFWVRQARGQRLEWIGDINPVNGDTNFNEKFKNRVTITADKSTSTAYMELSSLRSEDTAVYYCARGGYTMDYWGQG VL: DVVMTQSPLSLPVTLGQPASISCRSSQSLVHSNGNTYLHWYQQKPGKAPKLLIYKVSYRFSGVPDRFSGSGSGTDFTLKISRVEAEDVGVYYCSQNTHVPRTFGQG | 0.9 fold of chimera | 0.9 fold of chimera | 0.7 fold of chimera | 1.7 fold of chimera
pVxK7b-037-hum13-LC/pVxK7b-037-hum13-HC (antibody, human IgG1, V domains shown, Full-length human IgG1/kappa in CHO supernatant; Variable entries end within framework 4 (...FGQG / ...WGQG); also called Clone 13) VH: EVQLVQSGAEVKKPGESLRISCKGSGYTFTNYYVFWIRQSPSRGLEWLGDINPVNGDTNFNEKFKNRVTITADKSTSTAYMELSSLRSEDTAVYYCARGGYTMDYWGQG VL: DIVMTQTPLSLPVTPGEPASISCRSSQSLVHSNGNTYLHWYQQKPGKAPKLLIYKVSYRFSGVPDRFSGSGSGTDFTLKISRVEAEDVGVYYCSQNTHVPRTFGQG | 1.4 fold of chimera | 1.3 fold of chimera | 1.2 fold of chimera | 3.1 fold of chimera
pVxK7b-037-hum04-LC/pVxK7b-037-hum04-HC (antibody, human IgG1, V domains shown, Full-length human IgG1/kappa in CHO supernatant; Variable entries end within framework 4 (...FGQG / ...WGQG); also called Clone 4) VH: QVQLQESGPGLVKPSQTLSLTCTVSGYTFTNYYVFWVRQAPGKGLEWVSDINPVNGDTNFNEKFKNRVTISVDTSKNQFSLKLSSVTAADTAVYYCARGGYTMDYWGQG VL: DIQMTQSPSSLSASVGDRVTITCRSSQSLVHSNGNTYLHWYLQKPGQSPQLLIYKVSYRFSGIPARFSGSGSGTEFTLTISSLQSEDFAVYYCSQNTHVPRTFGQG | 0.6 fold of chimera | 0.6 fold of chimera | 0.6 fold of chimera | 1 fold of chimera
pVxK7b-037-hum05-LC/pVxK7b-037-hum05-HC (antibody, human IgG1, V domains shown, Full-length human IgG1/kappa in CHO supernatant; Variable entries end within framework 4 (...FGQG / ...WGQG); also called Clone 5) VH: QVQLQESGPGLVKPSQTLSLTCTVSGYTFTNYYVFWVRQAPGKGLEWVSDINPVNGDTNFNEKFKNRVTISVDTSKNQFSLKLSSVTAADTAVYYCARGGYTMDYWGQG VL: DIVMTQTPLSLPVTPGEPASISCRSSQSLVHSNGNTYLHWYLQKPGQSPQLLIYKVSYRFSGVPDRFSGSGSGTDFTLKISRVEAEDVGVYYCSQNTHVPRTFGQG | 1.2 fold of chimera | 1 fold of chimera | 1 fold of chimera | 2.2 fold of chimera
pVxK7b-037-hum15-LC/pVxK7b-037-hum15-HC (antibody, human IgG1, V domains shown, Full-length human IgG1/kappa in CHO supernatant; Variable entries end within framework 4 (...FGQG / ...WGQG); also called Clone 15) VH: QVQLQESGPGLVKPSQTLSLTCTVSGYTFTNYYVFWVRQARGQRLEWIGDINPVNGDTNFNEKFKNRLTISKDTSKNQVVLTMTNMDPVDTATYYCARGGYTMDYWGQG VL: AIQLTQSPSSLSASVGDRVTITCRSSQSLVHSNGNTYLHWYQQKPGQAPRLLIYKVSYRFSGVPSRFSGSGSGTEFTLTISSLQPDDFATYYCSQNTHVPRTFGQG | 1.2 fold of chimera | 1.3 fold of chimera | 1 fold of chimera | 2.4 fold of chimera
pVxK7b-037-hum06-LC/pVxK7b-037-hum06-HC (antibody, human IgG1, V domains shown, Full-length human IgG1/kappa in CHO supernatant; Variable entries end within framework 4 (...FGQG / ...WGQG); also called Clone 6) VH: QVQLQESGPGLVKPSQTLSLTCTVSGYTFTNYYVFWVRQARGQRLEWIGDINPVNGDTNFNEKFKNRLTISKDTSKNQVVLTMTNMDPVDTATYYCARGGYTMDYWGQG VL: DIQMTQSPSSLSASVGDRVTITCRSSQSLVHSNGNTYLHWYLQKPGQSPQLLIYKVSYRFSGIPARFSGSGSGTEFTLTISSLQSEDFAVYYCSQNTHVPRTFGQG | 1.1 fold of chimera | 1.2 fold of chimera | 0.9 fold of chimera | 2.1 fold of chimera
pVxK7b-037-hum21-LC/pVxK7b-037-hum21-HC (antibody, human IgG1, V domains shown, Full-length human IgG1/kappa in CHO supernatant; Variable entries end within framework 4 (...FGQG / ...WGQG); also called Clone 21) VH: QVQLQESGPGLVKPSQTLSLTCTVSGYTFTNYYVFWVRQARGQRLEWIGDINPVNGDTNFNEKFKNRLTISKDTSKNQVVLTMTNMDPVDTATYYCARGGYTMDYWGQG VL: AIQLTQSPSSLSASVGDRVTITCRSSQSLVHSNGNTYLHWYQQKPGQAPRLLIYKVSYRFSGVPDRFSGSGSGTDFTLKISRVEAEDVGVYYCSQNTHVPRTFGQG | 1.4 fold of chimera | 1.2 fold of chimera | 1.2 fold of chimera | 2.8 fold of chimera
pVxK7b-037-hum07-LC/pVxK7b-037-hum07-HC (antibody, human IgG1, V domains shown, Full-length human IgG1/kappa in CHO supernatant; Variable entries end within framework 4 (...FGQG / ...WGQG); also called Clone 7) VH: QVQLQESGPGLVKPGATVKISCKVSGYTFTNYYVFWVRQARGQRLEWIGDINPVNGDTNFNEKFKNRVTITADKSTSTAYMELSSLRSEDTAVYYCARGGYTMDYWGQG VL: DIVMTQTPLSLPVTPGEPASISCRSSQSLVHSNGNTYLHWYLQKPGQSPQLLIYKVSYRFSGVPDRFSGSGSGTDFTLKISRVEAEDVGVYYCSQNTHVPRTFGQG | 0.9 fold of chimera | 0.4 fold of chimera | 0.5 fold of chimera | 0.8 fold of chimera
pVxK7b-037-hum12-LC/pVxK7b-037-hum12-HC (antibody, human IgG1, V domains shown, Full-length human IgG1/kappa in CHO supernatant; Variable entries end within framework 4 (...FGQG / ...WGQG); also called Clone 12) VH: QVQLQESGPGLVKPGATVKISCKVSGYTFTNYYVFWVRQARGQRLEWIGDINPVNGDTNFNEKFKNRVTITADKSTSTAYMELSSLRSEDTAVYYCARGGYTMDYWGQG VL: DIVMTQTPLSLPVTPGEPASISCRSSQSLVHSNGNTYLHWYQQKPGKAPKLLIYKVSYRFSGVPDRFSGSGSGTDFTLKISRVEAEDVGVYYCSQNTHVPRTFGQG | 1.4 fold of chimera | 0.6 fold of chimera | 0.8 fold of chimera | 1.3 fold of chimera
